Experimental findings from article PMC11480844 (2024) are described below.

To fix the notation:
B1: H2-Kb / Ed21 (parent complex)
chain 1: AQSVTQPDARVTVSEGASLQLRCKYSYFGTPYLFWYVQYPRQGLQLLLKYYPGDPVVQGVNGFEAEFSKSNSSFHLRKASVHWSDWAVYFCAVSMSGGYKVVFGSGTRLLVSP
chain 2: DSGVVQSPRHIIKEKGGRSVLTCIPISGHSNVVWYQQTLGKELKFLIQHYEKVERDKGFLPSRFSVQQFDDYHSEMNMSALELEDSAMYFCASSPRQTDYTFGSGTRLLVI
chain 3: not shown
chain 4: IQKTPQIQVYSRHPPENGKPNILNCYVTQFHPPHIEIQMLKNGKKIPKVEMSDMSFSKDWSFYILAHTEFTPTETDTYACRVKHDSMAEPKTVYWDRDM
chain 5: SIINFEKL
B2: H2-Kb / Ed28 (parent complex)
chain 1: AQSVTQPDARVTVSEGASLQLRCKYSYFGTPYLFWYVQYPRQGLQLLLKYYPGDPVVQGVNGFEAEFSKSNSSFHLRKASVHWSDWAVYFCAVSPGSGGKLTLGAGTRLQVNL
chain 2: B1 chain 2 with Q97A, T98S
chain 3: not shown
chain 4: B1 chain 4
chain 5: SIINFEKL

Numbering of substitutions follows the chain as printed.
Note: test concentration or dose not given here.

The variants in one experiment derive from B1. The experiment can be described thus: % of reporter cells activated (NFAT-GFP), raw.
For the variant chain 5 F5A, the ratio to parent worked out at 1.05.

As for chain 5 F5S, the ratio to parent turned out to be 0.886. For chain 5 F5C, the ratio to parent was found to be 1.04. As for chain 5 F5G, the ratio to parent worked out at 0.873. On the same count and under the same terms, next, chain 5 F5T: 0.964. As to chain 5 F5W, the ratio to parent was found to be 0.866. Consider chain 5 F5I, for which the ratio to parent came to 0.891. The same measure, in the same setting: next, chain 5 F5K: 0.952.

In the case of chain 5 F5Q, the ratio to parent was found to be 0.939. chain 5 F5H: the ratio to parent worked out at 0.947. Still for that read-out and setting: the result for chain 5 F5N reads 0.947; that for chain 5 F5R, 0.958; that for chain 5 N4H, 0.47. On the same count and under the same terms, next, chain 5 N4E: 0.189; chain 5 N4A: 0.498; chain 5 N4W: 0.017.

In the case of chain 5 N4T, the ratio to parent stood at 0.165. On the same count and under the same terms, next, chain 5 N4S: 0.271. For chain 5 N4D, the ratio to parent was found to be 0.487. In the case of chain 5 N4R, the ratio to parent turned out to be 0.476. On to chain 5 N4Y, for which the ratio to parent turned out to be 0.0148. Turning to chain 5 N4F, the ratio to parent was found to be 0.0275. On the same count and under the same terms, next, chain 5 N4C: 0.162; chain 5 N4I: 0.389. Consider chain 5 N4K, for which the ratio to parent stood at 0.566. Take chain 5 N4L: the ratio to parent stood at 0.618. On the same count and under the same terms, next, chain 5 E6N: 0.884; chain 5 E6D: 0.964; chain 5 E6S: 0.641.

As to chain 5 E6G, the ratio to parent amounted to 0.785.

As to chain 5 E6L, the ratio to parent was 0.329. Same read-out and setting: next, chain 5 E6H: 0.59; chain 5 E6Y: 0.366; chain 5 E6A: 0.845. For chain 5 E6V, the ratio to parent came out at 0.0269. Same read-out and setting: the result for chain 5 E6M reads 0.593; that for chain 5 E6Q, 0.918; that for chain 5 K7V, 0.788.

In the case of chain 5 K7G, the ratio to parent stood at 0.605. The same measure, in the same setting: the result for chain 5 K7Q reads 0.568. With chain 5 K7I, the ratio to parent was 0.799. The same measure, in the same setting: the result for chain 5 K7A reads 0.645; that for chain 5 K7N, 0.706. Consider chain 5 K7E, for which the ratio to parent amounted to 0.0818. The same measure, in the same setting: next, chain 5 K7H: 0.997; chain 5 K7M: 0.418; chain 5 K7T: 0.752.

Turning to chain 5 K7L, the ratio to parent was found to be 0.785. Same read-out and setting: next, chain 5 L8K: 0.901.

Regarding chain 5 L8T, the ratio to parent was 0.783. As for chain 5 L8I, the ratio to parent is 0.859. Same read-out and setting: the result for chain 5 L8G reads 0.966; that for chain 5 L8N, 0.888. As for chain 5 L8Y, the ratio to parent is 0.976. For the variant chain 5 L8F, the ratio to parent worked out at 0.826. On the same count and under the same terms, next, chain 5 L8M: 0.887; chain 5 L8H: 1.03. Take chain 5 L8C: the ratio to parent came out at 0.882.

Turning to chain 5 L8E, the ratio to parent worked out at 0.685. On the same count and under the same terms, next, chain 5 L8V: 0.686; chain 5 I2N: 1.01. On to chain 5 I2K, for which the ratio to parent was 0.906. Turning to chain 5 I2F, the ratio to parent came out at 0.951. Take chain 5 I2V: the ratio to parent was 1.04. In the case of chain 5 I2E, the ratio to parent came out at 0.964.

For the variant chain 5 I2R, the ratio to parent is 0.916. Still for that read-out and setting: the result for chain 5 I2P reads 0.975; that for chain 5 I2G, 1; that for chain 5 I2L, 1.02. chain 5 I2Q: the ratio to parent came to 0.904.

As to chain 5 I3S, the ratio to parent came to 0.901. chain 5 I3G: the ratio to parent worked out at 0.636.

On to chain 5 I3R, for which the ratio to parent was 0.775.

As to chain 5 I3N, the ratio to parent was 0.961. The same measure, in the same setting: next, chain 5 I3D: 0.575. On the same count and under the same terms, the result for chain 5 I3Q reads 0.902. Still for that read-out and setting: next, chain 5 I3M: 0.99; chain 5 I3A: 0.872.

In the case of chain 5 I3F, the ratio to parent was 0.869. As to chain 5 S1N, the ratio to parent was 0.724. With chain 5 S1T, the ratio to parent amounted to 0.927.

Take chain 5 S1K: the ratio to parent worked out at 0.664. With chain 5 S1F, the ratio to parent is 0.805. In the case of chain 5 S1A, the ratio to parent came out at 1.02.

Consider chain 5 S1M, for which the ratio to parent came out at 0.954.

The variants in a further experiment derive from B2. The experiment can be described thus: % of reporter cells activated (NFAT-GFP), raw.
With chain 5 K7I, the ratio to parent stood at 0.197. As for chain 5 K7C, the ratio to parent turned out to be 0.0363. On to chain 5 K7S, for which the ratio to parent amounted to 0.406. The same measure, in the same setting: the result for chain 5 K7W reads 0.407; that for chain 5 K7H, 0.81; that for chain 5 K7Y, 0.48. As to chain 5 F5P, the ratio to parent was 0.74.

For chain 5 F5H, the ratio to parent was determined as 1. On the same count and under the same terms, next, chain 5 F5W: 0.773; chain 5 F5A: 0.81; chain 5 F5Y: 0.875.

As to chain 5 F5D, the ratio to parent amounted to 0.687. Turning to chain 5 F5K, the ratio to parent stood at 0.56. The same measure, in the same setting: the result for chain 5 F5L reads 0.844; that for chain 5 F5E, 0.483.

As to chain 5 F5C, the ratio to parent worked out at 1.13. Still for that read-out and setting: the result for chain 5 F5G reads 0.564; that for chain 5 I2A, 1.25; that for chain 5 I2R, 0.92. The same measure, in the same setting: the result for chain 5 I2D reads 1.3.

For chain 5 I2N, the ratio to parent was determined as 0.898.

In the case of chain 5 I2C, the ratio to parent came out at 1.15. Same read-out and setting: the result for chain 5 I2L reads 1.14; that for chain 5 I3K, 0.651; that for chain 5 I3H, 1.24. With chain 5 I3S, the ratio to parent stood at 1.14. The same measure, in the same setting: next, chain 5 I3E: 0.656; chain 5 I3L: 0.98; chain 5 I3A: 0.632. For the variant chain 5 I3R, the ratio to parent turned out to be 0.134. With chain 5 I3V, the ratio to parent worked out at 1.08. As for chain 5 E6Q, the ratio to parent came out at 0.315. Take chain 5 E6I: the ratio to parent was found to be 0.0144. With chain 5 E6L, the ratio to parent was 0.014.

Consider chain 5 E6W, for which the ratio to parent is 0.00894. The same measure, in the same setting: next, chain 5 E6H: 0.116; chain 5 E6P: 0.0742; chain 5 E6T: 0.0253.

As for chain 5 E6C, the ratio to parent worked out at 0.0175. Take chain 5 E6S: the ratio to parent is 0.039. Consider chain 5 E6A, for which the ratio to parent was 0.238. Turning to chain 5 L8M, the ratio to parent is 0.862. In the case of chain 5 L8E, the ratio to parent stood at 0.493. On the same count and under the same terms, the result for chain 5 L8W reads 0.685. Consider chain 5 L8H, for which the ratio to parent was determined as 0.85. In the case of chain 5 L8V, the ratio to parent stood at 0.761.

Regarding chain 5 L8C, the ratio to parent worked out at 0.616.

Take chain 5 L8P: the ratio to parent was found to be 0.83. The same measure, in the same setting: next, chain 5 L8I: 1.02; chain 5 L8Q: 0.602; chain 5 N4A: 0.0295. chain 5 N4E: the ratio to parent was found to be 0.0544. The same measure, in the same setting: next, chain 5 N4P: 0.00481; chain 5 N4V: 0.00909. Still for that read-out and setting: the result for chain 5 N4D reads 0.035; that for chain 5 N4C, 0.0197; that for chain 5 N4K, 0.504. Regarding chain 5 S1Y, the ratio to parent stood at 0.825. As to chain 5 S1H, the ratio to parent turned out to be 1. In the case of chain 5 S1G, the ratio to parent amounted to 0.898. Turning to chain 5 S1T, the ratio to parent is 1.13. As to chain 5 S1L, the ratio to parent is 0.332. As for chain 5 S1V, the ratio to parent is 0.67.

In the case of chain 5 S1D, the ratio to parent is 0.536. The same measure, in the same setting: next, chain 5 S1A: 1.05.
